Results from patent US20130130273A1 (KOREA BASIC SCIENCE INSTITUTE, published 2013).

Target: TMD-mRFP-RelA (UniProt Q04206 1-551)
Experiment: co-translocation of a three-protein complex (RelA, IkB, p50) after 1 µM PMA, confocal microscopy, HEK293 cells

Sequence of TMD-mRFP-RelA (Q04206 other isoform, or with tags, fused parts or gaps limits assumed): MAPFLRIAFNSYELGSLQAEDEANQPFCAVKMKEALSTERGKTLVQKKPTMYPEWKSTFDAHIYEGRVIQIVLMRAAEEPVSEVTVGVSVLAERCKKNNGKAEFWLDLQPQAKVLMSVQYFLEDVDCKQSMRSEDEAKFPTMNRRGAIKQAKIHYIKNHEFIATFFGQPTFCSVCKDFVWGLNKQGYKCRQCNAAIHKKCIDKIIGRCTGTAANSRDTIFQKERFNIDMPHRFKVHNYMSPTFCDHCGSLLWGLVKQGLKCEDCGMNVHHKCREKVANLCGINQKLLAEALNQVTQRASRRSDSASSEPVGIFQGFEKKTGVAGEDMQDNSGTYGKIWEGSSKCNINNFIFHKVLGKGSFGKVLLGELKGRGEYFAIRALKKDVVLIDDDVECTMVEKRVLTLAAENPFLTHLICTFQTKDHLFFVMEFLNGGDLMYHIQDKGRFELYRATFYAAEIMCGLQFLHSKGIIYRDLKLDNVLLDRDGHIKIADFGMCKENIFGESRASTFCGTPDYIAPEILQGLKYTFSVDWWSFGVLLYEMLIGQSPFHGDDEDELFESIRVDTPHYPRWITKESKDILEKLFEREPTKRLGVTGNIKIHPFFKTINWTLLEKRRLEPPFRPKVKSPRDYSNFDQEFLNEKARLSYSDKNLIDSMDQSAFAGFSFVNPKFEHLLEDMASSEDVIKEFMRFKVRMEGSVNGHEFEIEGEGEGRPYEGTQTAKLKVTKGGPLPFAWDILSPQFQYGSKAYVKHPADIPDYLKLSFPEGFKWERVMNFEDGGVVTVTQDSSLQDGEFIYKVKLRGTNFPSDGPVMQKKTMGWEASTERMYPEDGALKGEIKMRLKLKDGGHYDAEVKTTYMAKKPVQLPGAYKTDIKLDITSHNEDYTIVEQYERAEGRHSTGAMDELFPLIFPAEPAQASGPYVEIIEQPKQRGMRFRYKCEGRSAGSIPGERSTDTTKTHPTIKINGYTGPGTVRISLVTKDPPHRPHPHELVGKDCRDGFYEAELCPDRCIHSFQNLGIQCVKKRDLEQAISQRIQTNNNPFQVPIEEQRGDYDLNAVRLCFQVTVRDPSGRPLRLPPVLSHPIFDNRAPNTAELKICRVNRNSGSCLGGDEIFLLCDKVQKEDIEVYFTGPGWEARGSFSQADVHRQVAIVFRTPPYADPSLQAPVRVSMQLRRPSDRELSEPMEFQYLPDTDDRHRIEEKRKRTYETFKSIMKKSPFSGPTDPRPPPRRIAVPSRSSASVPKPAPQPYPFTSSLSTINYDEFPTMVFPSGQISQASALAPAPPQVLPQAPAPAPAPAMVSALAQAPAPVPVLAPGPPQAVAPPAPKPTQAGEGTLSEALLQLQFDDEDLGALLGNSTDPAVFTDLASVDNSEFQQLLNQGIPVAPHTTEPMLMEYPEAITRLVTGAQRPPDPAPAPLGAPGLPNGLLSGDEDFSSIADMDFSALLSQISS

binding result: binds
B1: HcR-p50 (other)
chain: MVSGLLKESMRIKMYMEGTVNGHYFKCEGEGDGNPFAGTQSMRIHVTEGAPLPFAFDILAPCCEYGSRTFVHHTAEIPDFFKQSFPEGFTWERTTTYEDGGILTAHQDTSLEGNCLIYKVKVHGTNFPADGPVMKNKSGGWEPSTEVVYPENGVLCGRNVMALKVGDRHLICHHYTSYRSKKAVRALTMPGFHFTDIRLQMLRKKKDEYFELYEASVARYSDLPEKANMAEDDPYLGRPEQMFHLDPSLTHTIFNPEVFQPQMALPTDGPYLQILEQPKQRGFRFRYVCEGPSHGGLPGASSEKNKKSYPQVKICNYVGPAKVIVQLVTNGKNIHLHAHSLVGKHCEDGICTVTAGPKDMVVGFANLGILHVTKKKVFETLEARMTEACIRGYNPGLLVHPDLAYLQAEGGGDRQLGDREKELIRQAALQQTKEMDLSVVRLMFTAFLPDSTGSFTRRLEPVVSDAIYDSKAPNASNLKIVRMDRTAGCVTGGEEIYLLCDKVQKDDIQIRFYEEEENGGVWEGFGDFSPTDVHRQFAIVFKTPKYKDINITKPASVFVQLRRKSDLETSEPKPFLYYPEIKDKEEVQRKRQKLMPNFSDSFGGGSGAGAGGGGMFGSGGGGGGTGSTGPGYSFPHYGFPTYGGITFHPGTTKSNAGMKHG
notes: also called second construct 2
